# Numbering of substitutions follows the chain as printed.
# T1: His-tagged mouse CD38 (ACRO Biosystems #CD8-M5223) (mouse, UniProt P56528 45-304)
# T1 construct: bought recombinant protein with His tag; also called Murine
# T1 sequence (looked up): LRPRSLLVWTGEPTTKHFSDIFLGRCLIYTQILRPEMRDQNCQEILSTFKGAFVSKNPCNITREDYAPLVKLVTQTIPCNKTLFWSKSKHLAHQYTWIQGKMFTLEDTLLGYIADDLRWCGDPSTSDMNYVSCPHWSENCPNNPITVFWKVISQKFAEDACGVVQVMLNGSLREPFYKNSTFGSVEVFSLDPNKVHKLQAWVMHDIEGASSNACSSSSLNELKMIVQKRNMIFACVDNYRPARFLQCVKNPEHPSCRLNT
# T2: murine CD38 on transiently transfected Expi293 cells (Origene MC208001) (murine, UniProt P56528 1-304)
# T2 construct: whole, on cells; also called Murine (FACs)
# T2 sequence (looked up): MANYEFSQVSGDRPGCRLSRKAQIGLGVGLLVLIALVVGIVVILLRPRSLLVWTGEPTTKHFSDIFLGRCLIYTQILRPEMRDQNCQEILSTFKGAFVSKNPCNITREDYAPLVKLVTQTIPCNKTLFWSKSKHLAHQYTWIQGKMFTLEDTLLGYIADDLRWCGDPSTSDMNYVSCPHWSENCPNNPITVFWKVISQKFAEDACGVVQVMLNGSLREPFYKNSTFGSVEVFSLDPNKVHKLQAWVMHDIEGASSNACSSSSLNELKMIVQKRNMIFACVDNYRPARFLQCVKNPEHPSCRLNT
# B1: 40596p1.H7 (scFv, V domains shown)
# VH: EVQLLESGGGLVQPGGSLRLSCAASGFDFSTYAMTWVRQAPGKGLEWVAGNGWSGSFTYYADSVKGRFTVSRDNSKNTLYLQMNSLRAEDTAVYYCTRNPGFGEMDVWGQGTTVTVSS
# VL: EIVLTQSPGTLRLSPGERATLSCRASQTVGTTLAWYQQKPGQAPRLLIHGASTRATDIPDRFSGSGSGTEFTLTISSLQSEDFADYYCQQYKSWPPLTFGGGTKVEIK
# notes: tested as scFv-Fc supernatant
# B2: 40769p1.1.H10 (scFv, V domains shown)
# VH: EVQLLESGGGLVQPGGSLRLSCAAFGFTFSDYEMNWVRQAPGKGLEWVSSISITGSWTGYADSVKGRFTISRDNSKNTLYLQMNNLRAEDTAVYYCANYKSYYGMDVWGQGTTVTVSS
# VL: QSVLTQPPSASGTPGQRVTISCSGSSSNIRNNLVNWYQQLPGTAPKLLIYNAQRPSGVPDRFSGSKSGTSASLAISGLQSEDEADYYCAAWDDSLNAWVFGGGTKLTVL
# notes: tested as scFv-Fc supernatant
# B3: 40769p1.1.G12 (scFv, V domains shown)
# VH: EVQLLESGGGLVQPGGSLRLSCAASGFTFDDYVMSWVRQAPGKGLEWVSEISESDGSNKYYADSVKGRFIISRDNSKNTLYLQMNSLRAEDTAVYYCARLEPEKYYGMDVWGQGTTVTVSS
# VL: QSVLTQPPSASGTPGQRVTISCSGSNSNIGNNLVSWYQQLPGTAPKLLIYRHDHRPSGVPDRFSGSKSGTSASLAISGLQSEDEADYYCATWDDSLNGRAFGGGTKLTVL
# notes: tested as scFv-Fc supernatant
# B4: 40566p1.A7 (scFv, V domains shown)
# VH: RELVESGGGVVRPGESLRLSCAASGFTFDNYDMTWVRQAPGEGLEWVSFISSRGTFTYYTDSVRGRFTISRDNSKNTLYLEMNSLRAEDTAIYYCAKDSGEYYFFDYWGLGTLVTVSS
# VL: EIVMTQSPATLSVSPGERATFSCRASQSVNSKLAWYQQKPGQAPRLLIYGASRRATGIPDRFSGSGSGTEFTLTISSLQSEDFAVYYCQQYYDWPPLTFGGGTKVEIK
# notes: tested as scFv-Fc supernatant
# B5: 40566p1.D2 (scFv, V domains shown)
# VH: DVQLVESGGGVVRPGESLRLSCAASGFTFDNYDMTWVRQAPGEGLEWVSFISSRGTFTYYTDSVKGRFTISRDNSKNTLYLQMNSLRAEDTAIYYCTKDSGEYYFFDYWGLGTLVTVSS
# VL: B4 VL
# notes: tested as scFv-Fc supernatant
# B6: 40566p1.C1 (scFv, V domains shown)
# VH: B5 VH
# VL: B4 VL with I2T
# notes: tested as scFv-Fc supernatant
# B7: 40566p1.A8 (scFv, V domains shown)
# VH: B5 VH with T97A
# VL: B4 VL
# notes: tested as scFv-Fc supernatant
# B8: 40566p1.G12 (scFv, V domains shown)
# VH: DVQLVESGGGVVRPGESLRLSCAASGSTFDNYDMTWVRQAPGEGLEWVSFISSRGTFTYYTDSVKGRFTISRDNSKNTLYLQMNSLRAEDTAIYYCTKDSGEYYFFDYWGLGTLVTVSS
# VL: B4 VL with G50D
# notes: tested as scFv-Fc supernatant
# B9: 40566p1.D12 (scFv, V domains shown)
# VH: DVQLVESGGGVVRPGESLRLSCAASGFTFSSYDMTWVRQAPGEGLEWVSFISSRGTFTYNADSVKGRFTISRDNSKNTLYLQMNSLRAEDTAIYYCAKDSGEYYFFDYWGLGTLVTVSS
# VL: B4 VL
# notes: tested as scFv-Fc supernatant
# B10: 40566p1.F1 (scFv, V domains shown)
# VH: B5 VH
# VL: B4 VL with I2T, S31G, G50D
# notes: tested as scFv-Fc supernatant; also called 40566p1.Fl
# B11: 40566p1.B12 (scFv, V domains shown)
# VH: B5 VH with T56I, T61A, T97A
# VL: B4 VL
# notes: tested as scFv-Fc supernatant
# B12: 40566p1.B3 (scFv, V domains shown)
# VH: B5 VH with K65R, Q82E, T97A
# VL: B4 VL
# notes: tested as scFv-Fc supernatant
# B13: 40566p1.A9 (scFv, V domains shown)
# VH: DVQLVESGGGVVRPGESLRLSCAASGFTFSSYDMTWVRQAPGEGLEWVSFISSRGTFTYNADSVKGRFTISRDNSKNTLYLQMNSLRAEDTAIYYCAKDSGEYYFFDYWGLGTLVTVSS
# VL: B4 VL with T5M
# notes: tested as scFv-Fc supernatant
# B14: 40566p1.G9 (scFv, V domains shown)
# VH: B5 VH with T61A, T97A
# VL: B4 VL
# notes: tested as scFv-Fc supernatant
# B15: 40566p1.A12 (scFv, V domains shown)
# VH: B5 VH
# VL: B4 VL with G50D
# notes: tested as scFv-Fc supernatant; also called 40566p1.Al2
# B16: 40566p1.C11 (scFv, V domains shown)
# VH: B5 VH
# VL: B4 VL with M4L, A9G, V13L, F21L, S28T, N30G, Y49F, G50S, R53S, D60A
# notes: tested as scFv-Fc supernatant
# B17: 40566p1.B11 (scFv, V domains shown)
# VH: B5 VH with V11L, T97A
# VL: B4 VL with G64E, Y92H
# notes: tested as scFv-Fc supernatant
# B18: 40566p1.C9 (scFv, V domains shown)
# VH: B5 VH
# VL: B4 VL with I2T, G50D, Y87F
# notes: tested as scFv-Fc supernatant
# Molecular target: T3, His-tagged human CD38 (ACRO Biosystems cat #CD8-H5224) (human, UniProt P28907 43-300)
# T3 construct: bought recombinant protein with His tag
# Test: ELISA, coated His-CD38
row,ELISA 1 ug/ml,Binder
1,1.94,B1
2,1.7,B2
3,1.45,B3
4,1.99,B4
5,1.96,B5
6,1.92,B6
7,1.87,B7
8,1.58,B8
9,1.98,B9
10,1.83,B10
11,1.72,B11
12,1.89,B12
13,1.87,B13
14,1.82,B14
15,1.98,B15
16,1.87,B16
17,1.43,B17
18,1.83,B18

# Molecular target: T4, His-tagged cynomolgus monkey CD38 (ACRO Biosystems cat #CD8-05223) (cynomolgus monkey, UniProt Q5VAN0 43-301)
# T4 construct: bought recombinant protein with His tag
# Test: ELISA, coated His-CD38
row,ELISA 1 ug/ml,Binder
1,1.89,B1
2,1.96,B2
3,1.08,B3
4,1.85,B4
5,1.83,B5
6,1.74,B6
7,1.9,B7
8,1.62,B8
9,1.96,B9
10,1.95,B10
11,1.6,B11
12,1.81,B12
13,1.88,B13
14,1.86,B14
15,1.89,B15
16,1.7,B16
17,1.44,B17
18,1.66,B18

# Molecular target: T1, His-tagged mouse CD38 (ACRO Biosystems …)
# Test: ELISA, coated His-CD38
row,ELISA 1 ug/ml,Binder
1,0.048,B2
2,0.056,B3
3,2.12,B4
4,1.74,B5
5,1.86,B6
6,1.9,B7
7,1.65,B8
8,1.83,B9
9,2.17,B10
10,1.62,B11
11,1.93,B12
12,2.02,B13
13,1.93,B14
14,1.99,B15
15,1.6,B16
16,1.24,B17
17,1.97,B18

# Molecular target: T3, His-tagged human CD38 (ACRO Biosystems …)
# Test: SPR, captured scFv-Fc, His-CD38 analyte;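 note: SPR on a Carterra LSA, scFv-Fc captured by anti-human Fc on HC30M chip, His-tagged CD38 (human, mouse, cynomolgus) flowed as analyte in eight 1:2 steps from 400 nM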
# Experimental: (§1) Binding affinities and epitope bins of anti-CD38 antibodies to CD38 were determined by Surface Plasmon Resonance (SPR) using an LSA instrument (Carterra, Inc.). For binding affinities, goat anti-human Fc antibody was amine coupled to a HC30M chip. ScFv-Fc supernatants were diluted 30-fold with HBSTE and were captured by the anti-human Fc coupled HC30M chip. Dilution series starting at 400 nM his-tagged CD38 followed by 1:2 dilution for a total of 8 concentrations were injected to the chip for binding. Binding affinities were determined for human, mouse, and cynomolgus monkey.
row,Kd [nM],Binder
1,86.7,B1
2,1.95,B2
3,1.88,B3
4,202000,B4
5,11.8,B5
6,465,B6
7,0.872,B7
8,470000,B11
9,43800,B12
10,104,B17
11,0.269,B18

# Molecular target: T4, His-tagged cynomolgus monkey CD38 (ACRO …)
# Test: SPR, captured scFv-Fc, His-CD38 analyte;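 note: SPR on a Carterra LSA, scFv-Fc captured by anti-human Fc on HC30M chip, His-tagged CD38 (human, mouse, cynomolgus) flowed as analyte in eight 1:2 steps from 400 nM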
# Experimental: as §1
row,Kd [nM],Binder
1,114,B1
2,2.85,B2
3,11.4,B3
4,2.66,B4
5,29.8,B5
6,3880,B10
7,5.68,B12
8,549,B17
9,4.67,B18

# Molecular target: T1, His-tagged mouse CD38 (ACRO Biosystems …)
# Test: SPR, captured scFv-Fc, His-CD38 analyte;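 note: SPR on a Carterra LSA, scFv-Fc captured by anti-human Fc on HC30M chip, His-tagged CD38 (human, mouse, cynomolgus) flowed as analyte in eight 1:2 steps from 400 nM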
# Experimental: as §1
row,Kd [nM],Binder
1,51.6,B1
2,1.31,B4
3,1.74,B5
4,0.478,B6
5,5.81,B7
6,2.07,B8
7,0.967,B9
8,0.375,B10
9,25.6,B11
10,1.32,B12
11,0.918,B13
12,4.8,B14
13,1.03,B15
14,1.97,B16
15,224,B17
16,0.351,B18

# Molecular target: T5, human CD38 on transiently transfected Expi293 cells (Origene #SC321273) (human, UniProt P28907 1-300)
# T5 construct: whole, on cells; also called Human (FACs)
# Test: flow cytometry, transfected Expi293 cells;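 note: antibody binding to Expi293 cells transiently expressing human or murine CD38, antibodies applied at 10 ug/ml for 60 min on ice, read by flow cytometry as percent gated cells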
# Experimental: (§2) Binding of anti-CD38 antibodies to cell lines was assessed by FACS. Briefly, approximately 1.5 e5 Expi293 cells transiently transfected with either human or murine CD38 expression plasmids (Origene #SC321273 and MC208001 respectively) were resuspended in FACS buffer (PBS, 1% BSA, 0.1% sodium Azide) containing 10 ug/ml of anti-CD38 antibodies and incubated for 60 min on ice. […] Cells were then centrifuged and resuspended in FACS buffer. Analysis was done on a Attune Flow Cytometer from Invitrogen. Percent gated was plotted.
row,FACs 10 ug/ml (percent gated) [%],Binder
1,71.7,B1
2,79,B2
3,68.4,B3
4,14.2,B4
5,20.1,B5
6,26.4,B6
7,17.8,B7
8,7.52,B8
9,20.8,B9
10,32,B10
11,8.31,B11
12,21.1,B12
13,19.1,B13
14,17.8,B14
15,25.2,B15
16,11.9,B16
17,6.05,B17
18,31.3,B18

# Molecular target: T2, murine CD38 on transiently transfected …
# Test: flow cytometry, transfected Expi293 cells;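 note: antibody binding to Expi293 cells transiently expressing human or murine CD38, antibodies applied at 10 ug/ml for 60 min on ice, read by flow cytometry as percent gated cells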
# Experimental: as §2
row,FACs 10 ug/ml (percent gated) [%],Binder
1,62.8,B1
2,0.12,B2
3,0.16,B3
4,72.8,B4
5,71.2,B5
6,75.3,B6
7,70.8,B7
8,68.5,B8
9,74.8,B9
10,76,B10
11,57.7,B11
12,74.1,B12
13,75.9,B13
14,70.7,B14
15,72.6,B15
16,64.5,B16
17,49.9,B17
18,76.9,B18

# — patent publication US20220306762A1 (CRYSTAL BIOSCIENCE, published 2022)
